B1: AUP1 (parent)
chain: EGLLRFSSWPFSIQDVVQPLTLQV
B2: EPB41L3 (parent)
chain: FRFAPNHTKELEDKVIELHKSHRG
B3: TRIM43 (parent)
chain: NRFRVEISFHFEVTNHNIRLFEDV

Variants of: B1
Assay: protein stability index of a GFP-peptide fusion (GPS, HEK-293T) (PSI 1-6); higher = more stable
Conditions: c terminus: a fixed tail appended
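Also: lentivirally expressed fusions sorted by FACS into six bins by GFP to DsRed ratio, PSI derived from sequencing read proportions per bin multiplied by bin number.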

Protein stability index of substitutions, site by site:
V24: S 1.79 | D 1.97 | A 2.15
Q23: A 3.02 | M 3.98 | P 1.45 | R 2.91 | L 3.58
V17: C 3.22 | F 2.53 | K 2.35
S7: R 1.33 | I 3.04 | Y 3.72 | H 2.13
G2: H 3.65 | C 3.51
P19: W 1.56 | S 4.01 | I 2.96
W9: Y 3.88 | A 3.6 | I 2.27 | R 1.48 | L 2.97 | M 2.45 | D 1.58
S12: G 2.04
E1: Y 2.78 | C 3.48 | S 2.31 | T 1.8
Q14: T 1.79 | R 2.64
F6: P 2.07 | V 1.73 | W 2.94
L4: N 1.52 | D 2.08
L22: N 1.27 | S 1.85 | Q 2.11 | P 1.52 | H 1.75 | T 2.47
L20: S 2.4 | A 1.65
I13: F 3.26 | W 1.29 | D 1.86 | K 2.53
R5: D 1.73 | G 3.46 | S 2.64
Q18: H 2.53
L3: C 4.98 | T 4.12 | K 2.2 | D 1.83 | P 2.44
T21: Q 2.63 | D 1.58 | S 3.58 | N 1.74
S8: A 2.17 | G 2.57
P10: G 1.88 | N 2.05
F11: K 1.78
V16: K 2.57 | S 4.02 | T 3.01
D15: I 1.3 | K 1.48 | E 3.9 | N 2.13 | Y 2.41

Variants of: B2
Assay: as above
Conditions: c terminus: a fixed tail appended

Protein stability index, by site and new letter:
H22: T 1.76 | K 1.4 | F 1.92 | S 2.4 | M 1.55 | W 1.65 | L 1.63 | P 2.17 | E 2.52 | C 1.95 | Y 2.96 | I 1.68 | R 1.68 | N 2.34 | G 1.91 | Q 2.01 | A 1.98 | V 1.67 | D 2.48
S21: W 1.41 | V 2.2 | Y 2.4
R23: E 3.15 | V 1.83 | I 1.72 | M 1.73 | D 2.84 | C 2.4 | Q 2.87 | S 1.85 | P 1.93 | T 2.07 | K 2.37 | L 1.92 | N 2 | Y 2.78 | F 1.5 | H 1.92 | A 2.07 | G 3.6 | W 1.54
G24: Q 2.74 | P 2.19 | C 1.36 | I 2.04 | S 1.94 | F 2.31 | A 1.93 | H 1.97 | K 2.06 | T 1.73 | N 2.45 | R 2.05 | L 2.02 | W 1.84 | E 2.34 | D 1.75 | Y 1.56 | M 2.53 | V 1.74

Variants of: B3
Assay: as above
Conditions: c terminus: a fixed tail appended

Protein stability index, by site and new letter:
F9: E 1.95 | G 2 | H 1.09 | P 2.08 | K 1.85 | N 2.22 | R 1.76 | T 2.01 | D 2.27 | A 2.87 | S 1.91 | Q 1.28
V13: H 2.26 | E 4.46 | D 1.93 | P 4.3 | M 2.35
F21: C 2.67 | P 1.76 | L 2.29 | E 2.31 | R 1.88 | W 2 | Q 3.09 | Y 3.98
F3: E 1.53 | T 2.7 | D 3.13 | N 3.43 | I 2.35 | M 2.92 | A 3.07 | K 2.36 | V 2.2 | C 2.54
T14: L 2.29 | H 3.49 | N 3.31 | Y 3.83 | E 2.04
S8: L 3.72 | C 2.02 | G 2.38 | R 2.43 | P 2.36 | M 2.39
N17: C 3.65 | K 2.61 | R 2.53 | I 1.37 | F 2.85 | D 4.85 | Q 3.45
H16: R 4.01 | L 1.82 | C 3.06 | V 1.07 | A 3.14 | Y 2.9 | S 2.05
E6: L 2.03 | M 2.64 | T 4.38 | D 2.34 | A 2.86 | G 2.02 | K 3.25 | V 3.86 | P 2.27 | H 4.48 | S 3.18
E22: H 3.18 | L 2.29 | P 2.14 | Q 2.31 | T 2.66 | D 2.4 | K 2.02
E12: I 1.68 | Y 2.51 | A 2.58 | L 2.91 | W 2.64 | N 1.39
N15: W 3.34 | S 2.18 | G 2.28 | E 2.92 | T 1.49 | Y 3.23 | C 3.41 | F 3.62 | V 2.13 | M 2.49 | P 3.72 | D 2.5 | L 3.22
I18: S 2.35 | E 2.9 | K 1.47 | D 1.3 | V 2.97 | G 2.43 | H 3.18 | Y 3.23 | C 4.6 | Q 3.52 | T 2.09 | P 3.07 | W 3.01
V5: W 2.53 | D 2.08 | T 3.37 | K 3.27 | S 2.08 | Q 1.79 | R 1.5 | F 2.78 | N 2.11 | P 2.8 | E 1.46 | G 2.86 | A 3.44
L20: V 4.23 | R 3.74 | F 3.05 | Q 3.28 | Y 2.13
I7: T 1.68 | E 1.91 | D 2.44 | R 2.85 | N 2.06 | G 2.43 | F 3.57 | K 2.12 | P 1.81 | Y 3.41
N1: T 1.62 | Q 3.07 | L 3.45 | R 2.37 | D 3.89 | C 3.11
V24: Q 3.09 | F 2.43 | K 2.85 | I 2.14 | H 4.23 | T 2.44 | L 1.95
F11: P 1.58 | I 2.83 | Q 2.38 | E 1.03 | K 1.46 | D 1.27 | S 2.74 | T 2.44
R4: A 3.36 | N 2.75 | G 3.21 | L 2.88 | E 3.4 | C 2.91 | I 3.43 | T 2.08 | K 2.96
R19: S 3.39 | Q 2.14 | I 2.06 | H 3.79 | Y 3.54 | P 1.69 | D 3.62
R2: Y 2.89 | Q 3.46 | P 2.38 | S 1.5 | W 2.21 | V 1.92 | I 3.39 | D 2.46
H10: P 3.64 | N 2.63 | S 3.4 | E 2.98 | Q 4.08
D23: F 3.88 | M 2.12 | I 3.66 | Y 2.39 | Q 2.92 | G 3.13 | E 2.56 | K 1.95 | N 2.91
